{"source": "patent US20210054355A1", "about": "(NEW YORK UNIVERSITY, published 2021)", "binders": {"B1": {"name": "FGFR1c^ecto/ΔHBS (FGFR1c^ecto carrying K160Q/K163Q) (receptor)", "chain": "DNTKPNRMPVAPYWTSPEQMEQKLHAVPAAKTVKFKCPSSGTPNPTLRWLKNGKEFKPDHRIGGYKVRYATWSIIMDSVVPSDKGNYTCIVENEYGSINHTYQLDVVERSPHRPILQAGLPANKTVALGSNVEFMCKVYSDPQPHIQWLKHIEVNGSKIGPDNLPYVQILKTAGVNTTDKEMEVLHLRNVSFEDAGEYTCLAGNSIGLSHHSAWLTVLEALEER", "notes": "also called FGFR1c^ΔHBS"}, "B2": {"name": "FGFR1c^ecto/ΔHBS′ (FGFR1c^ecto carrying K207Q/R209Q) (receptor)", "chain": "B1 chain with Q19K, Q22K, K66Q, R68Q", "notes": "also called FGFR1c^ΔHBS′"}, "B3": {"name": "FGFR1c^ecto/ΔRRBS (FGFR1c^ecto carrying A171D) (receptor)", "chain": "B1 chain with Q19K, Q22K, A30D", "notes": "also called FGFR1^ΔRRBS"}, "B4": {"name": "FGFR1c^ecto/ΔSLBS (FGFR1c^ecto carrying I203E) (receptor)", "chain": "B1 chain with Q19K, Q22K, I62E", "notes": "also called FGFR1c^ΔSLBS"}, "B5": {"name": "FGFR1c^ecto/ΔSLBS′ (FGFR1c^ecto carrying V221D) (receptor)", "chain": "B1 chain with Q19K, Q22K, V80D", "notes": "also called FGFR1c^ΔSLBS′"}, "B6": {"name": "FGF23^ΔHBS (FGF23^WT carrying R140A/R143A) (ligand)", "chain": "YPNASPLLGSSWGGLIHLYTATARNSYHLQIHKNGHVDGAPHQTIYSALMIRSEDAGFVVITGVMSRRYLCMDFRGNIFGSHYFDPENCRFQHQTLENGYDVYHSPQYHFLVSLGAAKAAFLPGMNPPPYSQFLSRRNEIPLIHFNTPIPRQHTQSAEDDSERDPLNVLKPRARMTPAPAS"}, "B7": {"name": "Soluble human α-Klotho ectodomain (αKlotho^ecto) (receptor)", "chain": "EPGDGAQTWARVSRPPAPEAAGLFQGTFPDGFLWAVGSAAYQTEGGWQQHGKGASIWDTFTHHPLAPPGDSRNASLPLGAPSPLQPATGDVASDSYNNVFRDTEALRELGVTHYRFSISWARVLPNGSAGVPNREGLRYYRRLLERLRELGVQPVVTLYHWDLPQRLQDAYGGWANRALADHFRDYAELCFRHFGGQVKYWITIDNPYVVAWHGYATGRLAPGIRGSPRLGYLVAHNLLLAHAKVWHLYNTSFRPTQGGQVSIALSSHWINPRRMTDHSIKECQKSLDFVLGWFAKPVFIDGDYPESMKNNLSSILPDFTESEKKFIKGTADFFALCFGPTLSFQLLDPHMKFRQLESPNLRQLLSWIDLEFNHPQIFIVENGWFVSGTTKRDDAKYMYYLKKFIMETLKAIKLDGVDVIGYTAWSLMDGFEWHRGYSIRRGLFYVDFLSQDKMLLPKSSALFYQKLIEKNGFPPLPENQPLEGTFPCDFAWGVVDNYIQVDTTLSQFTDLNVYLWDVHHSKRLIKVDGVVTKKRKSYCVDFAAIQPQIALLQEMHVTHFRFSLDWALILPLGNQSQVNHTILQYYRCMASELVRVNITPVVALWQPMAPNQGLPRLLARQGAWENPYTALAFAEYARLCFQELGHHVKLWITMNEPYTRNMTYSAGHNLLKAHALAWHVYNEKFRHAQNGKISIALQADWIEPACPFSQKDKEVAERVLEFDIGWLAEPIFGSGDYPWVMRDWLNQRNNFLLPYFTEDEKKLIQGTFDFLALSHYTTILVDSEKEDPIKYNDYLEVQEMTDITWLNSPSQVAVVPWGLRKVLNWLKFKYGDLPMYIISNGIDDGLHAEDDQLRVYYMQNYINEALKAHILDGINLCGYFAYSFNDRTAPRFGLYRYAADQFEPKASMKHYRKIIDSNGFPGPETLERFCPEEFTVCTECSFFHTRKS", "notes": "also called wild-type αKlotho^ecto; soluble αKlotho"}, "B8": {"name": "αKlotho^ecto/ΔRBA (soluble αKlotho ectodomain lacking L544 to T565 of the KL2 β1α1 loop) (receptor)", "chain": "EPGDGAQTWARVSRPPAPEAAGLFQGTFPDGFLWAVGSAAYQTEGGWQQHGKGASIWDTFTHHPLAPPGDSRNASLPLGAPSPLQPATGDVASDSYNNVFRDTEALRELGVTHYRFSISWARVLPNGSAGVPNREGLRYYRRLLERLRELGVQPVVTLYHWDLPQRLQDAYGGWANRALADHFRDYAELCFRHFGGQVKYWITIDNPYVVAWHGYATGRLAPGIRGSPRLGYLVAHNLLLAHAKVWHLYNTSFRPTQGGQVSIALSSHWINPRRMTDHSIKECQKSLDFVLGWFAKPVFIDGDYPESMKNNLSSILPDFTESEKKFIKGTADFFALCFGPTLSFQLLDPHMKFRQLESPNLRQLLSWIDLEFNHPQIFIVENGWFVSGTTKRDDAKYMYYLKKFIMETLKAIKLDGVDVIGYTAWSLMDGFEWHRGYSIRRGLFYVDFLSQDKMLLPKSSALFYQKLIEKNGFPPLPENQPLEGTFPCDFAWGVVDNYIQVDTTLSQFTDKKRKSYCVDFAAIQPQIALLQEMHVTHFRFSLDWALILPLGNQSQVNHTILQYYRCMASELVRVNITPVVALWQPMAPNQGLPRLLARQGAWENPYTALAFAEYARLCFQELGHHVKLWITMNEPYTRNMTYSAGHNLLKAHALAWHVYNEKFRHAQNGKISIALQADWIEPACPFSQKDKEVAERVLEFDIGWLAEPIFGSGDYPWVMRDWLNQRNNFLLPYFTEDEKKLIQGTFDFLALSHYTTILVDSEKEDPIKYNDYLEVQEMTDITWLNSPSQVAVVPWGLRKVLNWLKFKYGDLPMYIISNGIDDGLHAEDDQLRVYYMQNYINEALKAHILDGINLCGYFAYSFNDRTAPRFGLYRYAADQFEPKASMKHYRKIIDSNGFPGPETLERFCPEEFTVCTECSFFHTRKS", "notes": "the mature protein is E34 to S959; Expressed and purified like the wild type (pEF1α/myc-His A); also called α-Klotho^ecto/deltaRBA; αKlotho^ecto/ΔRBA mutant"}}, "key": {"[1]": {"molecular_target": "B7", "assay": "SEC-MALS, 1:1:1 mixture with FGF23 and αKlotho^ecto", "description": "(§1) A Superdex 200 10/300 GL column (GE Healthcare, USA) was placed in-line between the HPLC pump (Waters 1525) and the HPLC UV (Waters 2998 Photodiode Array), laser light scattering, and refractive index detectors. Light scattering and refractive index detectors were calibrated following the manufacturer's guidelines. The refractive index increment (dn/dc) in which n is the refractive index and c is the concentration of the mixture of DDM and CHS in 20 mM Tris-HCl pH 8.0 buffer containing 300 mM NaCl, was determined offline using an Optilab T-rEX refractive index detector. Monomeric bovine serum albumin (#23210, Thermo Scientific, USA) was used as part of routine data quality control.\n60 ml or more of 25 mM HEPES pH 7.5 buffer containing 150 mM NaCl were passed through the system at a flow rate of 0.5 mL/min to equilibrate the Superdex 200 10/300 GL column and establish stable baselines for light scattering and refractive index detectors. Purified αKlotho^ecto, FGER1c^ecto (wild type or mutant), and FGF23 (wild type or mutant) proteins were mixed at a molar ratio of 1:1:1 and concentrated to 12.5 μM. 50 μl of protein samples with a molar equivalent of a heparin hexasaccharide (#H006, Iduron, Manchester, U.K.) were injected onto the gel filtration column, and the column eluent was continuously monitored for 280 nm absorbance, laser light scattering, and refractive index. In a separate set of experiments, 50 μl of 1:1:1 FGF23-FGFR1c^ecto-αKlotho^ecto ternary complex at 12.5 μM concentration was mixed with heparin hexasaccharide at molar ratios of 1:0.25, 1:0.5, 1:1, or 1:2, and the mixtures were injected onto the gel filtration column. 50 μl of ternary complex without added heparin hexasaccharide were run as a control. In yet another set of experiments, αKlotho^ecto (wild type or mutant) and FGER1c^ecto were mixed at a molar ratio of 1:1, and 50 μl of concentrated protein mixtures were injected onto the gel filtration column. 50 μl of concentrated αKlotho^ecto (wild type or mutant) alone were run as a control in these experiments. The analyses were performed at ambient temperature. Data were collected every second at a flow rate of 0.5 ml/min."}, "[2]": {"molecular_target": "B7", "assay": "SEC-MALS, 1:1:1 mixture with FGFR1c^ecto and αKlotho^ecto", "description": "as §1\n(§2) 60 ml or more of 25 mM HEPES pH 7.5 buffer containing 150 mM NaCl were passed through the system at a flow rate of 0.5 mL/min to equilibrate the Superdex 200 10/300 GL column and establish stable baselines for light scattering and refractive index detectors. Purified αKlotho^ecto, FGER1c^ecto (wild type or mutant), and FGF23 (wild type or mutant) proteins were mixed at a molar ratio of 1:1:1 and concentrated to 12.5 μM. 50 μl of protein samples with a molar equivalent of a heparin hexasaccharide (#H006, Iduron, Manchester, U.K.) were injected onto the gel filtration column, and the column eluent was continuously monitored for 280 nm absorbance, laser light scattering, and refractive index. […]"}, "[3]": {"molecular_target": "B1", "assay": "SEC-MALS of the 1:1:1 mixture with αKlotho^ecto and heparin hexasaccharide; the two proteins are seen together in the ternary complex [panel B]", "description": "as §1, §2"}, "[4]": {"molecular_target": "B2", "assay": "SEC-MALS of the 1:1:1 mixture with αKlotho^ecto and heparin hexasaccharide; the two proteins are seen together in the ternary complex [panel B]", "description": "as §1, §2"}, "[5]": {"molecular_target": "T1, FGF23 C-terminal tail peptide (FGF23^C-tail) (human)", "T1 construct": "The peptide may have been shorter, e.g. S180 to S205", "T1 peptide": "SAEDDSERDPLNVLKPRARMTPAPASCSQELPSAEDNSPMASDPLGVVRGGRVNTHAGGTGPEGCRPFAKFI", "assay": "fluorescence dye-based thermal shift assay (SYPRO Orange), 1:1 mixture; over the peak of αKlotho^ecto alone the sheet prints 48 [left]", "description": "(§3) Fluorescence Dye-Based Thermal Shift Assay: SYPRO Orange dye (#S6650, ThermoFisher Scientific, USA) was used as the fluorescent probe. 15 μl of 20 μM solutions of protein samples (wild-type and mutated forms of FGF23; αKlotho^ecto or αKlotho^{ecto/ΔRBA} alone; 1:1 mixtures of αKlotho^ecto or αKlotho^{ecto/ΔRBA} with FGF23 C-terminal tail peptide) were mixed with 5 μl of working dye solution (1:25 dilution) in duplicate in PCR strips. A temperature gradient from 4° C. to 100° C. at 1° C./minute increment was carried out with a CFX96 Touch™ Real-Time PCR Detection System (Bio-Rad, USA). Fluorescence was recorded as a function of temperature in real time. The melting temperature (Tm) was calculated with StepOne software v2.2 as the maximum of the derivative of the resulting SYPRO Orange fluorescence curves."}, "[6]": {"molecular_target": "T1, FGF23 C-terminal tail peptide …", "assay": "fluorescence dye-based thermal shift assay (SYPRO Orange), 1:1 mixture; over the peak of αKlotho^ecto/ΔRBA alone the sheet prints 51 [right]", "description": "as §3"}}, "note": "Changes are numbered by the printed parent chain. In names and notes the source's numbering stands."}
{"binder": "B1", "values": [{"measurement": "binding result", "setting": "[1]", "result": "binds"}]}
{"binder": "B2", "values": [{"measurement": "binding result", "setting": "[1]", "result": "binds"}]}
{"binder": "B3", "values": [{"measurement": "binding result", "setting": "[1]", "result": "binds"}]}
{"binder": "B4", "values": [{"measurement": "binding result", "setting": "[1]", "result": "binds"}]}
{"binder": "B5", "values": [{"measurement": "binding result", "setting": "[1]", "result": "binds"}]}
{"binder": "B6", "values": [{"measurement": "binding result", "setting": "[2]", "result": "binds"}, {"measurement": "binding result", "setting": "[3]", "result": "binds"}, {"measurement": "binding result", "setting": "[4]", "result": "binds"}]}
{"binder": "B7", "values": [{"measurement": "melting temperature (peak of derivative fluorescence) of the mixture", "setting": "[5]", "result": 54, "unit": "°C"}]}
{"binder": "B8", "values": [{"measurement": "melting temperature (peak of derivative fluorescence) of the mixture", "setting": "[6]", "result": 57.5, "unit": "°C"}]}
